# Results published in article PMC9436968, “Crosstalk between SUMOylation and ubiquitylation controls DNA end resection by maintaining MRE11 homeostasis on chromatin” (Nature Communications, 2022).
# B1: MBP-NBS1 (natural protein, UniProt O60934 1-754, looked up)
# chain: MWKLLPAAGPAGGEPYRLLTGVEYVVGRKNCAILIENDQSISRNHAVLTANFSVTNLSQTDEIPVLTLKDNSKYGTFVNEEKMQNGFSRTLKSGDGITFGVFGSKFRIEYEPLVACSSCLDVSGKTALNQAILQLGGFTVNNWTEECTHLVMVSVKVTIKTICALICGRPIVKPEYFTEFLKAVESKKQPPQIESFYPPLDEPSIGSKNVDLSGRQERKQIFKGKTFIFLNAKQHKKLSSAVVFGGGEARLITEENEEEHNFFLAPGTCVVDTGITNSQTLIPDCQKKWIQSIMDMLQRQGLRPIPEAEIGLAVIFMTTKNYCDPQGHPSTGLKTTTPGPSLSQGVSVDEKLMPSAPVNTTTYVADTESEQADTWDLSERPKEIKVSKMEQKFRMLSQDAPTVKESCKTSSNNNSMVSNTLAKMRIPNYQLSPTKLPSINKSKDRASQQQQTNSIRNYFQPSTKKRERDEENQEMSSCKSARIETSCSLLEQTQPATPSLWKNKEQHLSENEPVDTNSDNNLFTDTDLKSIVKNSASKSHAAEKLRSNKKREMDDVAIEDEVLEQLFKDTKPELEIDVKVQKQEEDVNVRKRPRMDIETNDTFSDEAVPESSKISQENEIGKKRELKEDSLWSAKEISNNDKLQDDSEMLPKKLLLTEFRSLVIKNSTSRNPSGINDDYGQLKNFKKFKKVTYPGAGKLPHIIGGSDLIAHHARKNTELEEWLRQEMEVQNQHAKEESLADDLFRYNPYLKRRR
# notes: NBS1, MBP- and His-tagged, in the pFastBac vector; also called MBP- and His-tagged NBS1; source: High Five cells (baculovirus), purified (amylose beads, Ni-NTA)
# What was measured:
# [1] = target: T1, Flag-WT-MRE11 (complexed with RAD50) (UniProt P49959 1-708; Q92878 1-1312); experiment: pull-down; purified proteins incubated in T50 buffer (25 mM Tris-HCl pH 7.5, 10% glycerol, 0.5 mM EDTA, 50 mM KCl, 1 mM DTT, 0.01% Igepal) on ice for 2 h, pulled down by anti-Flag M2 beads; supernatant and eluate immunoblotted; conditions: both partners purified
# T1 construct: MRE11, Flag-tagged, in the pESC-URA vector; RAD50, His-tagged, in the pESC-URA vector; The results call it Flag-MRE11; also called MRE11/RAD50 complex; Flag-MRE11; source: protease-deficient yeast strain, co-expressed, purified (Ni-NTA, anti-Flag M2 beads)
# T1 sequence (P49959 whole entry, chain 1 of 2): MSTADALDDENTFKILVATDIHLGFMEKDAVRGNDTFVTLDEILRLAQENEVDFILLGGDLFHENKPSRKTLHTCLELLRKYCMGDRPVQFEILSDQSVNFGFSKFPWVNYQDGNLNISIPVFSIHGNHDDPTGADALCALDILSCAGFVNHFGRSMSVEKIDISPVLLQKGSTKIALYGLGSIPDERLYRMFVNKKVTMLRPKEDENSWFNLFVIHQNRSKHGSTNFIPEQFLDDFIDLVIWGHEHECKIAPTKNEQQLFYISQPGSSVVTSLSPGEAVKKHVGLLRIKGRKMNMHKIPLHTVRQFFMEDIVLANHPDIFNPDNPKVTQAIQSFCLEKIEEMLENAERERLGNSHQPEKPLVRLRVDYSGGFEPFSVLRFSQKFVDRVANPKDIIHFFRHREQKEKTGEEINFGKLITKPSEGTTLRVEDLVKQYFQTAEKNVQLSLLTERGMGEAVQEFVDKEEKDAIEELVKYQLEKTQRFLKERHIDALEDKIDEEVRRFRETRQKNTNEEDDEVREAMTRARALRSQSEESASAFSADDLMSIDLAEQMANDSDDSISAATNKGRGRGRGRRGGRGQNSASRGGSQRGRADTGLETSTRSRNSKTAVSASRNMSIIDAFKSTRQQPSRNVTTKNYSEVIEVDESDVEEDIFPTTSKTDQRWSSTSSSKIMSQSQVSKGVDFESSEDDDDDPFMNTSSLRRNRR
# T1 sequence (Q92878 whole entry, chain 2 of 2): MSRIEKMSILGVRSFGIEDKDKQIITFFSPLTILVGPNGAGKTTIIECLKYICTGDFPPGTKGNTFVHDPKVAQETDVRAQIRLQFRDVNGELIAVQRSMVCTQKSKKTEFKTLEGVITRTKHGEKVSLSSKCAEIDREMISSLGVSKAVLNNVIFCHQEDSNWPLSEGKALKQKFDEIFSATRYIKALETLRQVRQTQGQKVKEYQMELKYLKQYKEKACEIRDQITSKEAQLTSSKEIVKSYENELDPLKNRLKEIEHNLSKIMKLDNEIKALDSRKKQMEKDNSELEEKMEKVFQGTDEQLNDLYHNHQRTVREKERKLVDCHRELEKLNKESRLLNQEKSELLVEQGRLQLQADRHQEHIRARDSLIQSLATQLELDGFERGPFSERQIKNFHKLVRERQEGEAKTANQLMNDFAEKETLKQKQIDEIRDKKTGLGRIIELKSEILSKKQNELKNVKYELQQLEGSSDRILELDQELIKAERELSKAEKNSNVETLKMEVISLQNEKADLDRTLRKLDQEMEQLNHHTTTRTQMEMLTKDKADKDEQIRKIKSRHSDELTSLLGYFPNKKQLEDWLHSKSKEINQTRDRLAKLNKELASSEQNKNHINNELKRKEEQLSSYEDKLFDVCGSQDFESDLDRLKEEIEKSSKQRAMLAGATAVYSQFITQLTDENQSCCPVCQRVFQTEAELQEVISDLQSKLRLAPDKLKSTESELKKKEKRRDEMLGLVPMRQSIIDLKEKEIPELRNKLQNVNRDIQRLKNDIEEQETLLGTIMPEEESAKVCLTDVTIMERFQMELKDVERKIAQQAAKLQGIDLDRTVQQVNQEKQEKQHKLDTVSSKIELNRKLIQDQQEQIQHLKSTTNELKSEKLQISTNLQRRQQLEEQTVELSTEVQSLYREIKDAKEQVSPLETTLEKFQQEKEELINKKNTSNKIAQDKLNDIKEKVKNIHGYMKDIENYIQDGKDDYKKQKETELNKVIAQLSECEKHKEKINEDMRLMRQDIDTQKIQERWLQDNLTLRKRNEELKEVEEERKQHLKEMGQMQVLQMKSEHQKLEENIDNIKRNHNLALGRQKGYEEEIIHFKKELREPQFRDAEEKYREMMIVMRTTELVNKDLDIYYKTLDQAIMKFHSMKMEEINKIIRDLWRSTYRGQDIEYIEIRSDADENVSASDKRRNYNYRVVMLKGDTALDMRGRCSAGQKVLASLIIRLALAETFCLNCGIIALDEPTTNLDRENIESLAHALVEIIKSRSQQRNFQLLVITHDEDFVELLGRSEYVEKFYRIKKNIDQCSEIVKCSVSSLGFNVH
# [2] = target: T2, Flag-4KR (complexed with RAD50) (UniProt P49959 1-708; Q92878 1-1312, K255R | K384R | K416R | K467R); experiment: as above; conditions: both partners purified
# T2 construct: MRE11 with the four lysine-to-arginine mutations (4KR); RAD50, His-tagged, as in the MRE11/RAD50 complex; also called MRE11 4KR mutant; SUMOylation-deficient MRE11; source: purified, complexed with RAD50; the host is told for the MRE11/RAD50 complex: yeast
# T2 sequence (P49959 whole entry K255R/K384R/K416R/K467R, chain 1 of 2): as the sequence (P49959 whole entry, chain 1 of 2) above, with K255R, K384R, K416R, K467R counted along it
# T2 sequence (Q92878 whole entry, chain 2 of 2): as the sequence (Q92878 whole entry, chain 2 of 2) above
binder,measurement,setting,value
B1,binding result,[1],binds
same,binding result,[2],binds
